The DeepSol protein solubility set

experiment: soluble on expression in E. coli; label from the status in PepcDB or PDB records

Row | Sequence | soluble on expression in E. coli
1 | MDEGIRASGGIRACQTGKQKQGRKRPVTGKKRIVVGMSGGVDSSVTAWLLKQQGHEVIGVFMQNWEDDNDDEYCSIKQDALDAMSVADIVGIDMEIVNFAKEYKDRVFSYFLKEYSAGRTPNPDVLCNAEIKFKAFLDYAMELGADCIATGHYARKLEQDGTHYLMKAVDHTKDQSYFLYRLQQHQLAKAIFPLGDIRKTEVRRLAEEAGLPTAAKKDSTGICFIGERPFREFLQRYLPTSPGQMVTPDGKVVGEHIGLMYYTLGQRKGLTIGGSRDGNGEPWFVAGKDIPGNKLIVVQGHDHPLLLKPTLSMADLSWTLPDAPAPGEYSAKNRYRMADAACTLSPIVDGQASLTFQEKQWAVTPGQSAVLYHGDICLGGGIIQLEHHHHHH | not soluble
2 | MPRKLLEERSTGSATKWLREEEKIEKKSRADQLKIKFMQTRDNSDINSIFSEPPSEFSVLCDDDDCDKGSVVSSTLTTSIRKTFSSFRFDENQRKKGTRKRRSSEKGRICRRKVHIILARNMLRKENELYKKDAEYCQTPRAVADGCSFSTLPTI | not soluble
3 | SNAKSAVTAQSILEKADEIRFPQDSFQVNVAIRTAAPDHAEDLYRYQVLSKGNENSIVMITEPASERGQAILMKGRDLWVFMPSVSQPIRLSLSQRLTGQVANGDIARANFTGDYHPQLLRNESIDDEDYYVLELTGIDRSVTYQKVLLWVNQSNFRPYKAEFYSVSGRLLKTSRYENFDNILGEMRPTRIIMEDALKSGEVSVLDYSDMKLRDLPDKIFTKDYLKRLE | soluble
4 | SLENYWVDERTLVVSGDFFGVSTGLLGGWKRVRHAFNHTVSEEFHSMEPAEYLRKVARGYGLKSYFGLLTSVPIEKLSVKGCGEVTVFATAGVMNPNERVGTINIIAVFECRMSRAAMLNAIITATEAKTKALLEEGHNFTGTNTDAVVVLCTQKGGYHRYCGPASEVGQKLWRCAGEAVKDSLARW | soluble
5 | MGSDKIHHHHHHMRTIEDDAALKILADVIKIPSVNDHELTVAKYLQDLLAKYDISAKIHPITGDRANLVAEIGHGQPVLAVSGHMDVVAAGDLAAWDTDPFTLVEKSGQLFGRGVTDMKAGLVALVVAMINIQQQGGPKHGTIRLLATMGEEVGEAGSAAFYQQGAMQDAAGLLIAEPSTVYGTAAEQKGSCDLKLTSKGKAVHSSTPERGYNALVPLIKLLNEANDYFETIPAGEMGPVRFNIDVLNGGDQVNSLPDLATALVNVRTIPEYDNDQVTQKLADLIAAYNQQGADIKMTAIMNESPIATTADNRLVKLVQAIGKPYAGRDVVVASSPGITDASNLAKRQPADFPFAVYGPGNMTQHQVNESLPKQMFYDFIAIYQQLFTRFLAE | not soluble
6 | MSEKRLPLKPVLRIDFPPGERLGHGKVELMQLIAETGSISAAGRAMDMSYRRAWLLVDALNHMFRQPVICSQRGGKQGGGAALTVFGAELLERYRGMEERMNEALREDIDWLEANRNPQDALNRDREPPTL | soluble
7 | MAEDLYKRLNTVDRLFTLALDLHSHTDLAAQTLMKSGKVHSIERVETDMLYQNHDKKFHLRSREFLDFPQNYCDLIVSLLSLQLTNDTPGVLSQIKNILKPDGLFLAVMAGVGTLSELRECLLQAEIEIYGGASPRIYPFADIRAVGALLQRVGFALPVADIEDVTIRYDTMFDLINDLRAMGMQNALINRSRRPVSKRFFLRAAEIYAKRFSDLDGRIRAHFSFIWLSGWAPHPNQQKPIQPGSAQISLADVLVKQSKKT | not soluble
8 | MISWEIEELDREIGKIKKHSLILIHEEDASSRGKDILFYILSRKLKSDNLVGMFSISYPLQLIIRILSRFGVDVIKYLENHRLAIVDTFGSFHGIKATMPGVWYLEGMLSSETLPIKYAKAVEDHKKVWMDLNLFEGRELYGFAISMSGYLEVFTPEETLRYLETSAEVRYGHPAYKKYPRGTNFWLWEGVKDKRVLLSVYRRADYVLKTRSSLGENGIKRELLVIKTPKPIEELVRFEYEFKGNEPKLRRVD | soluble
9 | MSFRTIEWRDDKVVMIDQTRLPGEEVYCEYADYKSVAEAIRGMVIRGAPAIGVAAAMGVALGAREIIADTYESFFRQMENVCDVMARTRPTAVNLFWAIERMKRVADENRDKPLDQLREILKTEAIRIEQEDLELCKAIGRHGAALIPEGATVLTHCNAGGLATAGYGTALGVIRAAHDAGKKIQVFADETRPWLQGARLTAWELMKDGIPVTLISDNMAGFFMKRGEIACCVVGADRIAANGDTANKIGTYSVAVLAKENNIPFYVAAPTTTLDLSLENGDQIPIEERHSREVTHLHGFPVAPEGIRVRNPAFDVTPARYISAIITEQGVVSGDYVTGLRGLVAPLEHHHHHH | not soluble
10 | NATERSPVIIGLAGFTGSGRSFLNRTYTSMDFLTALKEIDEKRSDLGFIIVLPDVMTGLYGNQYLNSSAVGNYEDFIVKDIVGIIRERFGERPMGVFGKSSGGFGSYTLAVRHPDIFSGFIDVSGDSAFEYVYIPDFPDTYKEIRRQGLYRWFDEIHRKLSLQNQDIKVANIVAMSAFYSPDPGSPMGISLPFDIETGELIESVWNRWLKFDPARNIADYMDVLRDMAIFLQVGAKDEFHTDIGIGTMHRKLEQENVVHFYEVYDSGHFGIDYFYLKSLPLLIELIEQ | not soluble
11 | MRGFLMFTSGPFDIDFVVLWVDGSDEKWLQKRAIYSSTKQQNNAVRFRDYGIFKYWFRAVAKYAPWVHHVYLVTDEQIPNWLSIQNSKVSVIDHKSIMPEDALPTFNSSAIELNIANIPGLSEHFVYFNDDMFLNRQVTPMDFFSEDGLPKDSAVQNAIMPVEDFDHMTANNVMLINQNFNKYQVLRRHPFRFFNFRYGFLNVLSICLLPWPRFTRFQDPHVPISFRKSVFEKVLNLHRDAWNETSHNRFRNRNDNTIWLIRYYQLVTAQFNPRTPFVGKKYNIGEMKKIVNDINTGKHKMICINDQNVSMAEFDNLTKQLRSTFRSKLPQKSEFEKMAGDPLEHHHHHH | not soluble
12 | MGTASYPDPEIRALAEKITANATSDLEKVKAIESYLKNNYINTYVERTDVKEFLFKTKRGTAREFATAFVLLAQSIGIPARAVFGYLADPVETNQTIFASDAYVWAEVRFKEGWMEFDPAPEGRG | soluble
13 | MGSDKIHHHHHHMQPLAFRMRPRTIEEIVGQQHLVGPGKIIDRMVKAKLLSSMILYGPPGTGKTSIASAISGSTKYAFRILNAATDSKKDLQIVAEEAKMSGTVILLLDEIHRLDKTKQDFLLPHLENGNIILIGATTENPYININPAIRSRTQIFEVKPLQPDEIKKAVLAAIKDSSRGLGELPIVIDEDALKFVSESTNGDLRSALNAVELAARSTGPDENQKIHLTLAILEECLQKRALTQDKDGDAHYDVISAFQKSIRGSDTDAALHYMARLLESGDLQSVIRRLLIIAYEDIGLANPPACQRTVSAVTAAEHVGLPEARIPLADAVIELCVSPKSNSGISAIDNALTDVRTGKIGEVPDHLRDSHYKGAAALGRGVDYKYPHNYPNDWIAQQYLPDKLVDAAYFDAKGNSTYEEKIKNRYESLKKSQRSNH | not soluble
14 | MLGGFVMDLFPFLPGVRISLQSGWLPSGAADALLAGLLEGVPWEVHRIHIFGREVNSPRLSCWVGDPQASYRYSGRCFQPRPWWPALAELRMCLEGETGAVFNSVLLNRYRHGGDAIGWHSDDEAELGIDPLIASVSLGASRRFVFRHRRERHLRAECVLSHGDLLLMGGTTQRDYQHALPRTLRVVGERVNLTFRRILMLEHHHHHH | soluble
15 | MGSDKIHHHHHHMNKLNFKGSVMLNPTPVVLVTSKDKSQNLNVFTVGWVSTVCTKDPIIAMGIRPERLSYQYIKESCECVINLPTTSMVKIVDYCGVVSGRRVDKIKHFSLPLNDGVSISTPSLENCPVALECKVKSVTPLGTHDLFLLQVLNVKIDETLLDKNNKICFNKANLMCYNHGEYYGLNSKPIGSFGFSVKKKTKKIHRRKKGD | not soluble
16 | GLVAHSDLDERAIEALKEFNEDGALAVLQQFKDSDLSHVQNKSAFLCGVMKTYRQREKQGTKVADSSKGPDEAKIKALLERTGYTLDVTTGQRKYGGPPPDSVYSGQQPSVGTEIFVGKIPRDLFEDELVPLFEKAGPIWDLRLMMDPLTGLNRGYAFVTFCTKEAAQEAVKLYNNHEIRSGKHIGVCISVANNRLFVGSIPKSKTKEQILEEFSKVTEGLTDVILYHQPDDKKKNRGFCFLEYEDHKTAAQARRRLMSGKVKVWGNVGTVEWADPIEDPDPEVMAKVKVLFVRNLANTVTEEILEKAFSQFGKLERVKKLKDYAFIHFDERDGAVKAMEEMNGKDLEGENIEIVFAKPPDQKRKERKAQRQAAKNQMYDDYYYYGPPHMPPPTRGRGRGGRGGYGYPPDYYGYEDYYDYYGYDYHNYRGGYEDPYYGYEDFQVGARGRGGRGARGAAPSRGRGAAPPRGRAGYSQRGGPGSARGVRGARGGAQQQRGRGQGKGVEAGPDLLQ | soluble
17 | MAHHHHHHMSRKRVRAEDIHYWLLKSEPHKFSIDDLAKQKTSPWDGVRNYAARNNMRAMSVGDKVLFYHSNTKEPGVAGLAEVVRLAYDDFTALDKTSEYFDPKATKEKNPWKMVDVKFVARWDTVLTLHELKSRRELQKMALFTQRRLSVQPVSASEYAYILRMNEEQQRK | soluble
18 | MALNVAPVRDTKWLTLEVCRQFQRGTCSRSDEECKFAHPPKSCQVENGRVIACFDSLKGRCSRENCKYLHPPTHLKTQLEINGRNNLIQQKTAAAMLAQQMQFMFPGTPLHPVPTFPVGPAIGTNTAISFAPYLAPVTPGVGLVPTEILPTTPVIVPGSPPVTVPGSTATQKLLRTDKLEVCREFQRGNCARGETDCRFAHPADSTMIDTSDNTVTVCMDYIKGRCMREKCKYFHPPAHLQAKIKAAQHQANQAAVAAQAAAAAATVMAFPPGALHPLPKRQALEKSNGTSAVFNPSVLHYQQALTSAQLQQHAAFIPTVPMMHSATSATVSAATTPATSVPFAATATANQIILK | soluble
19 | MFRLGTTPRATTYDPDARIGEVASRFGLPTRVLIEIVRTESFQRSLARVTSGKPVVLDLRELDSDLASWIATHARLVEPALRELVRTVAPDVEPRVRFRGLPHRFRRVERIRPMDGALISIEGVVREVRGAERLEHAIVDTGSELVAVRLHGHRLGPGLRVEILGIVRSATLDALEVHKKDPIPEVHPDPAELEEFRELADKDPLTTFARAIAPLPGAEEVGKMLALQLFSCVGKNSERLHVLLAGYPVVCSEILHHVLDHLAPRGVYVDLRRTELTDLTAVLKEDRGWALRAGAAVLADGGILAVDHLEGAPEPHRWALMEAMDKGTVTVDGIALNARCAVLAAINPGEQWPSDPPIARIDLDQDFLSHFDLIAFLGVDPRPGEPEEQDTEVPSYTLLRRYLLYAIREHPAPELTEEARKRLEHWYETRREEVEERLGMGLPTLPVTRRQLESVERLAKAHARMRLSDDVEPEDVDIAAELVDWYLETAMQIPGGDEIRISSLKP | soluble
20 | MGSDKIHHHHHHMTTAADLSVFEQLDLPDTSLTRDTFAFAAQATPAFIHDHCVRSYVFARAHAQNQGLRAGTDYDDELLFVSCVLHDLGLSEEGSNGDQRFEVDGADIAAAFLRERGVEEERIAVAWDAIALHTSEGIASRKGTEVALAHLGIATDILGIQRESLPAGLADEVHALLPRQDLAHGFSDLIITQAVAKPHKASPTNFIGDLLRRHLPYGAYPNWYDLIDAAGWGDKPVGVTARRRAETPQQVGTLFMEYLEAGDVEGLVSLYEPNAHFVPTPGTHLVGTDAIREAMRQMVDSGARLKLEQREIRQVDDIALVSNNAILTGIGPEPVVSTTTEILRRQPDGGWVHAVDDPFFS | not soluble
21 | MKDNNEVLKLFIVSDSIGETAQRMIHATLTQFPDLTQVEIKKFPYIKDEQEFLNVLQLAKEQNAIVATTLVSESFNALGHQFANEHQIPYVDYMSELISIIKQHTHAKPLMESGALRKLNDEYFKRIEAIEYSVKYDDGKHFTDIGEADALIVGVSRTSKTPLSMYLANKGYKIANIPLVPEVAIPDNVFQQKNLKVFGLTASPNYIANIRRNRAETLGLSSESNYNSLERIKKELSYAEEVFRKLNATVINTEYKSIEESAFYIEKFLAKRLEHHHHHH | not soluble
